Data: PMC6971206
Values belong to the molecule of their own block, whether it stands above or below them.

Assays:
[1] = target: bc1 complex (Complex III), dimer (S. cerevisiae (endogenous in BY4741 mitochondria)) (UniProt P07256); assay: native gel or EMSA; BN-PAGE (3-12% NativePage Bis-Tris) of mitochondria solubilised in 2% digitonin, then Western blot or second-dimension SDS-PAGE and immuno decoration; comigration; cells grown in YPGal, YPD or YPG; wild type, rcf1Δ, rcf2Δ and truncation strains
[2] = target: respiratory supercomplexes (III2IV and III2IV2) of bc1 complex and cytochrome c oxidase (S. cerevisiae (endogenous in BY4741 mitochondria)) (UniProt P07256); assay: as above

- fold change of the share residing in supercomplexes, YPG against YPD [1]: 1.4 fold
Molecule: cytochrome c oxidase (Complex IV), monomeric (from UniProt P00401 1-534; P00410 16-251; P00420 1-269; P04037 26-155; P00424 21-153; P00427 41-148; Q01519 1-83; P32799 10-129)

- fold change of the share residing in supercomplexes, YPG against YPD [2]: 2.5 fold
B1: Rcf1 (respiratory supercomplex factor 1) (natural protein)
chain: MSRMPSSFDVTERDLDDMTFGERIIYHCKKQPLVPIGCLLTTGAVILAAQNVRLGNKWKAQYYFRWRVGLQAATLVALVAGSFIYGTSGKELKAKEEQLKEKAKMREKLWIQELERREEETEARRKRAELARMKTLENEEEIKNLEKELSDLENKLGKK

- fold change of the share residing in supercomplexes, YPG against YPD [2]: 3.7 fold
B2: Rcf2 (respiratory supercomplex factor 2) (natural protein)
chain: MKILTQDEIEAHRSHTLKGGIEGALAGFAISAIIFKVLPRRYPKFKPSTLTWSIKTALWITPPTVLTAICAEEASNNFDATMYGSGSSSEDALDEHRRWKSLSTKDKFVEGLSNNKYKIITGAWAASLYGSWVIVNKDPIMTKAQKIVQARMYAQFITVGLLLASVGLSMYENKLHPNKQKVNEMRRWENALRVAEEEERLEKEGRRTGYVSNEERINSKIFKS
